# Measured values reported in patent US20230364000A1, “COMPOSITIONS COMPRISING COMBINATIONS OF COLLAGEN OR ELASTIN POLYPEPTIDES WITH ACTIVE INGREDIENTS AND METHODS OF USING SAME” (Geltor, Inc., priority 2020, published 2023).
# Experiments:
# facial skin [1] = test: Expert clinical grader evaluation of facial skin (10 cm VAS; five-point ordinal scale for erythema), clinical study of Example 3; assay type: in vivo, human; conditions: 0.1% w/w topical formulation, Week 2
# Method: (§1) A clinical study using human subjects to determine the effects of a topical skincare product containing truncated human type 21 collagen (SEQ ID NO: 16) is performed. The research is performed according to U.S. and International standards of Good Clinical Practice (FDA and ICH guidelines) and applicable government regulations.
# (§2) A base formulation (control formulation) made of water, olive oil glycereth-8 esters, glycerin, coconut alkanes, hydroxyethyl acrylate/sodium acryloyldimethyl taurate copolymer, pentylene glycol, disodium EDTA, caprylyl glycol, chlorphenesin, phenoxyethanol is prepared. A formulation containing the truncated human type 21 collagen is prepared by adding sufficient collagen to prepare a topical formulation containing 0.1% w/w collagen.
# Visual Analog Scales (VAS) are commonly used in clinical research to measure intensity or frequency of various symptoms, subjective characteristics or attitudes that cannot be directly measured. VAS are a reliable scale and more sensitive to small changes than simple ordinal scales. (A. Paul-Dauphin, F. Guillemin, J. Virion and S. Briancon, “Bias and precision in visual analog scales: A randomized controlled trial,” American Journal of Epidemiology, vol. 150, no. 10, pp. 1117-27, 1999). When responding to a VAS item, the expert grader specifies their level of agreement to a statement by indicating a position along a line (10 cm) between two end-points or anchor responses. Simple VAS is used to evaluate efficacy parameters in which the ends of a 10 cm horizontal line is defined as extreme limits orientated from the left (best) to the right (worst). Signs of photo-aging can be classified as follows: Mild=1-3.9 cm, Moderate=4-6.9 cm, Severe=7-10 cm.
# Ordinal scales allow a number to be directly and objectively attached to the quality of a given attribute. When responding to an ordinal scale item, the expert grader specifies their level of agreement to a statement by choosing a set grade, or level.
# The appearance of each subject's facial skin redness (erythema) is assessed by an expert grader using the following five-point ordinal scale for qualification at Baseline (Table 6). If qualified, each subject will undergo further erythema assessments at week 2, week 4, week 6 and week 8.
# Fourteen female subjects are enrolled. The inclusion criteria are Caucasian female subjects with Fitzpatrick skin type III in good general health, and between ages of 35 and 65 years old, inclusive at enrollment. Inclusion criteria also include signs of aging on face as determined by an expert grader at a baseline of: a) Score of >2 cm<6 on 10 cm scale for lines/wrinkles; and b) Score of >1<3 on 5-point ordinal scale for facial redness (erythema). Table 7 discloses the demographics of the study participants.
# The results of the expert clinical grader evaluation on lines/wrinkles, firmness (visual), elasticity (tactile), brightness, texture/softness (tactile), texture/smoothness (visual) and erythema after two weeks treatment are shown in Table 8. All of the tested characteristics were improved. The scores for brightness, texture/softness (tactile), texture/smoothness (visual) and erythema improved with statistical significance.
# facial skin [2] = test: Cutometer skin firmness and elasticity, clinical study of Example 3; assay type: in vivo, human; conditions: 0.1% w/w topical formulation; for Cutometer Elasticity (R5 Ur/Ue) Mean ± SD / Cutometer Firmness (R0 Uf) Mean ± SD / Cutometer Elasticity (R2 Ua/Uf) Mean ± SD: n 14; for Cutometer Elasticity (R5 Ur/Ue) Mean ± SD: baseline 0.28 ± 0.06; for Cutometer Firmness (R0 Uf) Mean ± SD: baseline 0.35 ± 0.06; for Cutometer Elasticity (R2 Ua/Uf) Mean ± SD: baseline 0.64 ± 0.09
# Method: as §1, §2
# The Cutometer MPA 580 (Courage+Khazaka, Germany) measures the viscoelastic properties of the skin by applying suction to the skin surface, drawing the skin into the aperture of the probe and determining the penetration depth using an optical measuring system.
# The Cutometer outputs include many parameters of different portions of the measurement curve including of R0 (Uf, firmness), R2 (Ua/Uf, gross elasticity), R5 (Ur/Ue, net elasticity), R7 (Ur/Uf, elastic portion) and R9 (R3 [last max amp]-R0 [Uf], fatigue).
# All subjects have Cutometer measurements taken on the left or right cheek (following a prepared randomization code) at baseline, immediately post-initial-application, and at weeks 2, 4, and 8. Skin elasticity is reported using the R5 (Ur/Ue) and R2 (Ua/Uf) parameter. As the skin becomes more elastic, this value will increase. Skin Firmness is reported using the R0 (Uf) parameter. As the skin becomes firmer, this value will decrease. Assessment location is recorded on a face map for each subject for consistency of measurements between visits.
# Improvements in skin hydration, firmness, and elasticity were statistically significant.
# facial skin [3] = test: SIAscope facial skin collagen content, clinical study of Example 5; assay type: in vivo, human; conditions: topical facial serum 0.1%, n=15, FIG. 7
# Description: In a clinical study (n=15 subjects), subjects used a topical facial serum containing 0.1% of a polypeptide of SEQ ID NO: 16 for 8 weeks, after using a protein-free base facial serum for a 1-week washout period. Topical application of a polypeptide of SEQ ID NO: 16 was associated with increased skin collagen content, as measured by a SIAscope.
# [4] = test system: Human full-thickness skin equivalents (MatTek Epiderm FT co-culture tissue models); test: Type I collagen production in human full-thickness skin equivalents (pro-collagen type I C-peptide ELISA); assay type: cell-based; conditions: polypeptide 0.1% w/w, FIG. 18
# Method: Human full-thickness skin equivalents (MatTek Epiderm FT co-culture tissue models) which contain keratinocytes and fibroblasts were treated with a 0.1% w/w truncated human type 21 collagen polypeptide (having an amino acid sequence of SEQ ID NO: 16) (“C21”; FIG. […] Culture medium was changed every 2 days. On day 4, supernatant was collected and analyzed by enzyme-linked immunosorbent assay (ELISA) for pro-collagen type I C-peptide, which is a readout for total secreted collagen type I protein.
# [5] = test system: Human full-thickness skin equivalents (MatTek Epiderm FT co-culture tissue models); test: Fibronectin production in human full-thickness skin equivalents (ELISA); assay type: cell-based; conditions: polypeptide 0.1% w/w, FIG. 19
# [6] = day 4 supernatant, hyaluronic acid 0.1% w/w (low molecular weight, 15-40 kDa)
# [7] = each agent alone, day 4, retinol (10, unit not given), ascorbic acid 2% w/w, hyaluronic acid 0.1% w/w
molecule,measurement,setting,value
"SEQ ID NO: 16: truncated human collagen type 21 alpha 1 without the DsbA secretion tag, recombinantly expressed in E. coli (protein) AGFPGLPGPAGEPGRHGKDGLMGSPGFKGEAGSPGAPGQDGTRGEPGIPGFPGNRGLMGQKGEIGPPGQQGKKGAPGMPGLMGSNGSPGQPGTPGSKGSKGEPGIQGMPGASGLKGEPGATGSPGEPGYMGLPGIQGKKGDKGNQGEKGIQGQKGENGRQGIPGQQGIQGHHGAKGERGEKGEPGVR",Brightness Mean Percent Improvement From BL mean,facial skin [1],2.57%
same,Brightness Percent of Subjects Showing Improvement From BL,facial skin [1],78.6%
same,Elasticity (Tactile) Mean Percent Improvement From BL mean,facial skin [1],0.25%
same,Elasticity (Tactile) Percent of Subjects Showing Improvement From BL,facial skin [1],35.7%
same,Erythema Mean Percent Improvement From BL mean,facial skin [1],23.81%
same,Erythema Percent of Subjects Showing Improvement From BL,facial skin [1],35.7%
same,Firmness (Visual) Mean Percent Improvement From BL mean,facial skin [1],1.08%
same,Firmness (Visual) Percent of Subjects Showing Improvement From BL,facial skin [1],64.3%
same,Lines/Wrinkles (Global) Mean Percent Improvement From BL mean,facial skin [1],0.92%
same,Lines/Wrinkles (Global) Percent of Subjects Showing Improvement From BL,facial skin [1],57.1%
same,Texture/Smoothness (Visual) Mean Percent Improvement From BL mean,facial skin [1],3.63%
same,Texture/Smoothness (Visual) Percent of Subjects Showing Improvement From BL,facial skin [1],64.3%
same,Texture/Softness (Tactile) Mean Percent Improvement From BL mean,facial skin [1],6.43%
same,Texture/Softness (Tactile) Percent of Subjects Showing Improvement From BL,facial skin [1],71.4%
same,Texture/Softness (Tactile) Mean ± SD,"facial skin [1]; n 14, baseline 4.82 ± 0.82, P-value 0.008*",4.51 ± 0.89
same,Elasticity (Tactile) Mean ± SD,"facial skin [1]; n 14, baseline 4.91 ± 0.53, P-value 0.547",4.90 ± 0.52
same,Firmness (Visual) Mean ± SD,"facial skin [1]; n 14, baseline 5.07 ± 0.77, P-value 0.120",5.01 ± 0.75
same,Lines/Wrinkles (Global) Mean ± SD,"facial skin [1]; n 14, baseline 5.22 ± 0.75, P-value 0.336",5.17 ± 0.75
same,Texture/Smoothness (Visual) Mean ± SD,"facial skin [1]; n 14, baseline 5.46 ± 0.70, P-value 0.009*",5.25 ± 0.68
same,Brightness Mean ± SD,"facial skin [1]; n 14, baseline 5.51 ± 0.54, P-value 0.010*",5.37 ± 0.62
same,Erythema Mean ± SD,"facial skin [1]; five-point ordinal scale, n 14, baseline 1.60 ± 0.73, P-value 0.021*",1.21 ± 0.80
same,Cutometer Elasticity (R2 Ua/Uf) Mean Percent Improvement From BL mean,facial skin [2]; Immediate,45.85%
same,Cutometer Elasticity (R5 Ur/Ue) Mean Percent Improvement From BL mean,facial skin [2]; Immediate,44.57%
same,Cutometer Elasticity (R5 Ur/Ue) Percent of Subjects Showing Improvement From BL,facial skin [2]; Immediate,92.9%
same,Cutometer Firmness (R0 Uf) Mean Percent Improvement From BL mean,facial skin [2]; Immediate,30.38%
same,Cutometer Firmness (R0 Uf) Percent of Subjects Showing Improvement From BL,facial skin [2]; Immediate,100%
same,Cutometer Elasticity (R5 Ur/Ue) Mean ± SD,"facial skin [2]; Immediate, P-value <0.001*",0.40 ± 0.09
same,Cutometer Firmness (R0 Uf) Mean ± SD,"facial skin [2]; Immediate, P-value <0.001*, value decreases as skin becomes firmer",0.24 ± 0.05
same,Cutometer Elasticity (R2 Ua/Uf) Mean ± SD,"facial skin [2]; Immediate, P-value <0.001*",0.93 ± 0.13
same,Cutometer Elasticity (R2 Ua/Uf) Mean Percent Improvement From BL mean,facial skin [2]; Week 2,26.93%
same,Cutometer Elasticity (R5 Ur/Ue) Mean Percent Improvement From BL mean,facial skin [2]; Week 2,33.36%
same,Cutometer Elasticity (R5 Ur/Ue) Percent of Subjects Showing Improvement From BL,facial skin [2]; Week 2,92.9%
same,Cutometer Firmness (R0 Uf) Mean Percent Improvement From BL mean,facial skin [2]; Week 2,11.27%
same,Cutometer Firmness (R0 Uf) Percent of Subjects Showing Improvement From BL,facial skin [2]; Week 2,78.6%
same,Cutometer Elasticity (R5 Ur/Ue) Mean ± SD,"facial skin [2]; Week 2, P-value <0.001*",0.37 ± 0.08
same,Cutometer Firmness (R0 Uf) Mean ± SD,"facial skin [2]; Week 2, P-value 0.028*",0.31 ± 0.07
same,Cutometer Elasticity (R2 Ua/Uf) Mean ± SD,"facial skin [2]; Week 2, P-value <0.001*",0.80 ± 0.09
same,skin collagen content,facial skin [3]; 2 weeks vs baseline,increased
same,skin collagen content,facial skin [3]; 8 weeks vs baseline,increased
same,increase of type I collagen production relative to the untreated control,[4]; [6],64%
same,production of type I collagen as compared to untreated cells,[4]; [7],increased production
same,increase of fibronectin production relative to untreated control,[5]; [6],67%
same,production of fibronectin as compared to untreated cells,[5]; [7],increased production
